Publication PMC7729135, “PPARγ S273 Phosphorylation Modifies the Dynamics of Coregulator Proteins Recruitment” (Frontiers in Endocrinology, 2020)
Blank lines part the entries; values can stand above or below the molecule they belong to.

B1: PPARγ LBD (aa207-aa477), purified (domain or fragment, UniProt P37231-2 207-477, looked up)
chain: ESADLRALAKHLYDSYIKSFPLTKAKARAILTGKTTDKSPFVIYDMNSLMMGEDKIKFKHITPLQEQSKEVAIRIFQGCQFRSVEAVQEITEYAKSIPGFVNLDLNDQVTLLKYGVHEIIYTMLASLMNKDGVLISEGQGFMTREFLKSLRKPFGDFMEPKFEFAVKFNALELDDSDLAIFIAVIILSGDRPGLLNVKPIEDIQDNLLQALELQLKLNHPESSQLFAKLLQKMTDLRQIVTEHVQLLQVIKKTETDMSLHPLLQEIYKDLY
notes: also called PPARγ wt; PPARγ wild-type

Tests used:
[1] = molecular target: Gal-SMRT (ID1 + ID2, human SMRT from 982 to the C terminus) (human); test: two-hybrid; mammalian two-hybrid in Hek293T cells (corepressors): Gal4 DBD-corepressor + VP16-PPARγ LBD + pGRE-LUC + Renilla control; with or without 1 μM Rosiglitazone for 24 h; interaction rate = luminescence divided by that of the corepressor without PPARγ
Chain of Gal-SMRT (ID1 + ID2, human SMRT from 982 to the C terminus) (human) (Q9Y618 whole entry, the tested form may be a part): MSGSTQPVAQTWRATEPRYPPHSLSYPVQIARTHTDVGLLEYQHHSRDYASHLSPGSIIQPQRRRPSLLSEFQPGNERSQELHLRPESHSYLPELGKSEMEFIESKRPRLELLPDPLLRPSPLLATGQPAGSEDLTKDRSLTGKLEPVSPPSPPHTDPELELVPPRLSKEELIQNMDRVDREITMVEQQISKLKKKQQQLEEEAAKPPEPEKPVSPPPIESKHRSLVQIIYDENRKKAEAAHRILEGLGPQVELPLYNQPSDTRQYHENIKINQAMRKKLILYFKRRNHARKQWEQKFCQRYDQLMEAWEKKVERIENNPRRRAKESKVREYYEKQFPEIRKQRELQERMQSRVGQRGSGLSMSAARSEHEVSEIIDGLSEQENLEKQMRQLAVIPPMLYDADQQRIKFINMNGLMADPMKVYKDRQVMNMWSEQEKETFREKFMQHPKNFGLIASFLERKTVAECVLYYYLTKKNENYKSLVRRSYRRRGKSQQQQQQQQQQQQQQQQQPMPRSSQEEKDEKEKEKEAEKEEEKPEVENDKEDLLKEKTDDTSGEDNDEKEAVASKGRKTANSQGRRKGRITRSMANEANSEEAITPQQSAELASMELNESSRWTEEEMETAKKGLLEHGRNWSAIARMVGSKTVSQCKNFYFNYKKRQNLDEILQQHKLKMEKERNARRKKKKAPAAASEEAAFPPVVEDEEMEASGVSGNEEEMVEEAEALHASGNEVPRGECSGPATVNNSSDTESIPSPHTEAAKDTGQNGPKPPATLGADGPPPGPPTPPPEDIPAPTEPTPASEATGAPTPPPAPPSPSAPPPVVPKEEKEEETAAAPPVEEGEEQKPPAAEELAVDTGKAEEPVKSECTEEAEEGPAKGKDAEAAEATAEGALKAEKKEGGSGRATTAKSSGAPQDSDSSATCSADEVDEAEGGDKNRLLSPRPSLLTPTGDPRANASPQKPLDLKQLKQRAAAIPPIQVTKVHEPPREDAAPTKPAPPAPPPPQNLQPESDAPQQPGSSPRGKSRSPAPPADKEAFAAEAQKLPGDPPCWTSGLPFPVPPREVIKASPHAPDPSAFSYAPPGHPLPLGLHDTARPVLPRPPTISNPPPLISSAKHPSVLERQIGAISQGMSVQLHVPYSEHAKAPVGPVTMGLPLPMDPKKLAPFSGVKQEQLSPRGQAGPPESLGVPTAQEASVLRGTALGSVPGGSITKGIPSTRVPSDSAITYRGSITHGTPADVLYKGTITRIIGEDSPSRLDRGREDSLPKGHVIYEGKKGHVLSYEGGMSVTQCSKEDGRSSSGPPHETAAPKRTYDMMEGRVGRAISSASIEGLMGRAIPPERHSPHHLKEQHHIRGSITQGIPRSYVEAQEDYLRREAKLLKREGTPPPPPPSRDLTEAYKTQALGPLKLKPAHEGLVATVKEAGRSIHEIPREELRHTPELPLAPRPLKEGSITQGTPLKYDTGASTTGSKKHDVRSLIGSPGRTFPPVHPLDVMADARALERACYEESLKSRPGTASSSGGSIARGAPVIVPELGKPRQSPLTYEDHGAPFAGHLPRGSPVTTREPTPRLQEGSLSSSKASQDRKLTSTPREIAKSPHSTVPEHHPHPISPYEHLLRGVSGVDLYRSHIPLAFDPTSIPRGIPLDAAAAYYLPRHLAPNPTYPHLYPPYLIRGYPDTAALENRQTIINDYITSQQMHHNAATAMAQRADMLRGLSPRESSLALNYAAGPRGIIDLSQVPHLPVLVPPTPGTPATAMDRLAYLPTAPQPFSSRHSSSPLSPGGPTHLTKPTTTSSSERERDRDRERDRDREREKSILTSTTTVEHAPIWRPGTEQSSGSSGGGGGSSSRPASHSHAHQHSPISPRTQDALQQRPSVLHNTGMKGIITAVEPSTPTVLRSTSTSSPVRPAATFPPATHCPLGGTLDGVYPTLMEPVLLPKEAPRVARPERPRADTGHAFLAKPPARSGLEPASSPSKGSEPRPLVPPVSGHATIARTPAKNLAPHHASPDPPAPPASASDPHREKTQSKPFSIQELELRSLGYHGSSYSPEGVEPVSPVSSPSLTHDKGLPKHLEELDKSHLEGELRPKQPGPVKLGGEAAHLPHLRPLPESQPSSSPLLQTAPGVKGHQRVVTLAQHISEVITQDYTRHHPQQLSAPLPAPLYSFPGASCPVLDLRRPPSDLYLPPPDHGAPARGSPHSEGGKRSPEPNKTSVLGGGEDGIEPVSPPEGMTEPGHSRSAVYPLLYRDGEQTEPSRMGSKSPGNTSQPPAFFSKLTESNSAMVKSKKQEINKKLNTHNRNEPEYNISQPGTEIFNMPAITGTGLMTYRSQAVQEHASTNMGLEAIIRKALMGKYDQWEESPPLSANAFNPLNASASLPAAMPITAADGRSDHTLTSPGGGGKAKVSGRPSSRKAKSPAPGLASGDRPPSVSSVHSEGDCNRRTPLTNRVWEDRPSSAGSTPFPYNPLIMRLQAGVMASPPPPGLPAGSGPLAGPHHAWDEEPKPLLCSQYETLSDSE

[2] = molecular target: VP16-PPARγ (LBD region of PPARγ fused to the VP16 transactivation domain) (UniProt P37231); test: mammalian two-hybrid assay; conditions: for response: read off a plot; for other: Dissociation ratio / other: Fold activation: Rosiglitazone against no treatment
[3] = molecular target: T1, GST-tagged SMRT (aa2041-aa2359) (UniProt Q9Y618 2041-2359, FITC (fluorescein isothiocyanate) label in the fluorescence anisotropy assay; unlabelled in the pull-down); test: fluorescence polarisation; fluorescence anisotropy: PPARγ wt, S273A or S273D (200 μM to 6 nM) titrated into FITC-labelled affinity purified corepressor, in the elution buffer of the corepressor; Kd from a Hill model; conditions: both partners purified
T1 construct: SMRT aa2041-aa2359; source: modified E. coli BL21(DE3) strain
T1 sequence (Q9Y618 2041-2359): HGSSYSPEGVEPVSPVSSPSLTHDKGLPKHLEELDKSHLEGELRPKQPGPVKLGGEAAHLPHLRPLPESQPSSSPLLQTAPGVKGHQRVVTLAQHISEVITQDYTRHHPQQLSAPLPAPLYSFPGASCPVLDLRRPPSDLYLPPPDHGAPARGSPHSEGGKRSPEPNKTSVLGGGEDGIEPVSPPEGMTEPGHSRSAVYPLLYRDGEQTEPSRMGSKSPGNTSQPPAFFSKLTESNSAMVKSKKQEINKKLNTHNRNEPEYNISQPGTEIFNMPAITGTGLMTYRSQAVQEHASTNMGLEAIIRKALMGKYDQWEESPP

[4] = molecular target: T2, Gal-NCoR (ID1 + ID2 + ID3, mouse NCoR from 1629 to the C terminus) (mouse, UniProt Q60974 1629-2453); test: two-hybrid; mammalian two-hybrid in Hek293T cells (corepressors): Gal4 DBD-corepressor + VP16-PPARγ LBD + pGRE-LUC + Renilla control; with or without 1 μM Rosiglitazone for 24 h; interaction rate = luminescence divided by that of the corepressor without PPARγ; conditions: partners not purified
T2 construct: mouse NCoR from 1629 to the C terminus (ID1 + ID2 + ID3), in the vector pM (Clontech); Plasmid provided by A. Le Maire (CBS, CNRS); also called NCoR wt; source: HEK293T cells, transfected (mammalian two-hybrid fusion)
T2 sequence (looked up): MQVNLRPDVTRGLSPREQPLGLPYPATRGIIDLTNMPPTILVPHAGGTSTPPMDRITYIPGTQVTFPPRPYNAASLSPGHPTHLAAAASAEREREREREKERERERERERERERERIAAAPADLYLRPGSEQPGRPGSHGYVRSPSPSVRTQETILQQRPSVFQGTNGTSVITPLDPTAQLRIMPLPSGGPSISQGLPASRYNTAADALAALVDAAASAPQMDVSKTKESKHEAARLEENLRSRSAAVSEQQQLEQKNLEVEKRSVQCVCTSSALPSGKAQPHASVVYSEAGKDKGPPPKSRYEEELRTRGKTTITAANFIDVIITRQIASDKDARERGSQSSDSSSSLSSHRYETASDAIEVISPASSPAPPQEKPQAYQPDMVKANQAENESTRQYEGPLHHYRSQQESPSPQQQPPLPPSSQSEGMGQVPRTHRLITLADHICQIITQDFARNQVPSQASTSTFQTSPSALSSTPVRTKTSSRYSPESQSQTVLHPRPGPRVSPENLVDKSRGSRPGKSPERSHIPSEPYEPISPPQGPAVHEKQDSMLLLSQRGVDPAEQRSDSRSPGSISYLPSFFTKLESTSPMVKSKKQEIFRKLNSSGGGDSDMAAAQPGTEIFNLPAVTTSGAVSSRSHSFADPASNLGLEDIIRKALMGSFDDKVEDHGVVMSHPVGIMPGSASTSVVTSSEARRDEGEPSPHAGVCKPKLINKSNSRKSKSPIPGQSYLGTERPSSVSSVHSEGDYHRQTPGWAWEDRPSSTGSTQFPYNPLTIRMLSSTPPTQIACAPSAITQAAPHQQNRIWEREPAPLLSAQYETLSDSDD

[5] = molecular target: T3, Gal-PGC1-α (mouse PGC1-α 136-340) (mouse, UniProt O70343 136-340); test: two-hybrid; as a1 (COS-7 cells, coactivators) with co-transfected pCDNA-CDK5 (CDK5 and P35); conditions: partners not purified
T3 construct: mouse PGC1-α, amino acids 136 to 340, in the vector pM (Clontech); holds ID1 LKKLL (residues 142-146); also called PGC1-α wt; Gal4-PGC1-α; source: COS-7 cells, transfected (mammalian two-hybrid fusion)
T3 sequence (looked up): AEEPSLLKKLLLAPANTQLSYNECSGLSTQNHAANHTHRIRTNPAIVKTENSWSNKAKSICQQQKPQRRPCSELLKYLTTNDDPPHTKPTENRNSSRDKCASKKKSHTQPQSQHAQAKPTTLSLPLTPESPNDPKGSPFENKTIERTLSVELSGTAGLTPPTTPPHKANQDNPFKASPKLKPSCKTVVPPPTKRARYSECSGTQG

[6] = molecular target: T2, Gal-NCoR (ID1 + ID2 + ID3, mouse NCoR …); test: two-hybrid; as a2 (Hek293T cells, corepressors) with co-transfected pCDNA-CDK5 (CDK5 and P35); conditions: partners not purified
[7] = molecular target: T4, Gal-TIF2 (three interaction domains, human TIF2 624-869) (human, UniProt Q15596 624-869); test: two-hybrid; mammalian two-hybrid in COS-7 cells (coactivators): Gal4 DBD-coactivator + VP16-PPARγ LBD + pGRE-LUC + Renilla control; with or without 1 μM Rosiglitazone for 24 h; interaction rate = luminescence divided by that of the empty Gal4 vector; conditions: partners not purified
T4 construct: also called TIF2 wt; source: COS-7 cells, transfected (mammalian two-hybrid fusion)
T4 sequence (looked up): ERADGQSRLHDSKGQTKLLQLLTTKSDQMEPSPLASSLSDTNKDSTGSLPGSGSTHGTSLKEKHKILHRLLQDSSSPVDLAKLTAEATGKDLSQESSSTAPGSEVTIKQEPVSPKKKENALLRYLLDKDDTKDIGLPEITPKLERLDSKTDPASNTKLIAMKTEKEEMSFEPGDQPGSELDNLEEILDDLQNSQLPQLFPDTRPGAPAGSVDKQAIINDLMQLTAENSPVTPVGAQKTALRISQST

[8] = molecular target: T5, Gal-TRAP220 (ID1 + ID2, human TRAP220 404-654) (human, UniProt Q15648 404-654); test: as above; conditions: partners not purified
T5 construct: human TRAP220, amino acids 404 to 654 (ID1 + ID2), in the vector pM (Clontech); source: COS-7 cells, transfected (mammalian two-hybrid fusion)
T5 sequence (Q15648 404-654): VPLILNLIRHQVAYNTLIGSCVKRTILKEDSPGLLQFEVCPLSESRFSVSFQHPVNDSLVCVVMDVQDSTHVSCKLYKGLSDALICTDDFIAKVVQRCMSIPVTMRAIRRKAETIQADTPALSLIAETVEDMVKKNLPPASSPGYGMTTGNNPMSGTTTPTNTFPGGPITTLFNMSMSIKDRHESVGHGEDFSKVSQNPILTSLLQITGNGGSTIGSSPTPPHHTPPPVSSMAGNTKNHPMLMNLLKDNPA

[9] = molecular target: T3, Gal-PGC1-α (mouse PGC1-α 136-340); test: as above; conditions: partners not purified
Gal-SMRT ID2m (human) = test: two-hybrid; mammalian two-hybrid in Hek293T cells (corepressors): Gal4 DBD-corepressor + VP16-PPARγ LBD + pGRE-LUC + Renilla control; with or without 1 μM Rosiglitazone for 24 h; interaction rate = luminescence divided by that of the corepressor without PPARγ
[10] = molecular target: B1; test: pull-down; coactivators: extract of His tagged PGC1-α on TALON resin or of GST-tagged TIF2 on Glutathione Sepharose, washed; then purified tag-free PPARγ or S273A, pre-incubated 20 min with rosiglitazone, 2 h at 4°C; eluate blotted with anti-PPARγ; conditions: both partners purified
[11] = molecular target: B1; test: fluorescence polarisation; fluorescence anisotropy: PPARγ wt, S273A or S273D (200 μM to 6 nM) titrated into FITC-labelled affinity purified coactivator, in the elution buffer of the coactivator, with Rosiglitazone (3× molar excess); Kd from a Hill model; conditions: both partners purified

dissociation rate in the presence of the ligand (Rosiglitazone) [1]: 65%
Molecule: VP16-PPARγ (LBD region of PPARγ fused to the VP16 transactivation domain) (from UniProt P37231 238-503) (domain or fragment)

response ([2]; No treatment, parent: est. 2.3): 2.4
other: Dissociation ratio [2]: 58%
Molecule: Gal-SMRT (ID1 + ID2, human SMRT from 982 to the C terminus) V2097A; I2098A

response ([2]; No treatment, parent: est. 3.6): 2.2
other: Dissociation ratio [2]: 39%
response ([2]; Rosiglitazone, parent: est. 1.2): 1.3
Molecule: Gal-NCoR (ID1 + ID2 + ID3, mouse NCoR from 1629 to the C terminus) (from UniProt Q60974) ID3 IDVII changed to IDVAA

response ([2]; No treatment, parent: est. 0.95): 0.45
other: Fold activation [2]: 0.5
response ([2]; Rosiglitazone, parent: est. 1.3): 0.75
Molecule: Gal-TIF2 (three interaction domains, human TIF2 624-869) (from UniProt Q15596) ID3 LRYLL changed to LRYAA

response ([2]; No treatment, parent: est. 1.0): 1.3
other: Fold activation [2]: 0.3
response ([2]; Rosiglitazone, parent: est. 1.4): 1.7
Molecule: Gal-TIF2 (three interaction domains, human TIF2 624-869) (from UniProt Q15596) ID2 LHRLL changed to LHRAA

Molecule: B1
Kd [3]: 4.06 ± 1.01 µM

interaction rate in the two-hybrid assay (fold), in absence of CDK5 [4]: 4 fold
interaction rate in the two-hybrid assay (fold), with CDK5 [5]: 2 fold
interaction rate in the two-hybrid assay (fold), with CDK5 [6]: 2 fold
interaction rate in the two-hybrid assay (fold), in absence of CDK5 [7]: 1.5 fold
interaction rate in the two-hybrid assay (fold) [8]: 4 fold
interaction rate in the two-hybrid assay (fold) [9]: 7 fold
interaction rate in the two-hybrid assay (fold), in absence of CDK5 [9]: 5 fold
fold reduction of the interaction against SMRT wt (Gal-SMRT ID2m (human)): 6 fold
B2: VP16-PPARγ (LBD region of PPARγ fused to the VP16 transactivation domain) (domain or fragment, UniProt P37231 238-503, looked up)
chain: DLRALAKHLYDSYIKSFPLTKAKARAILTGKTTDKSPFVIYDMNSLMMGEDKIKFKHITPLQEQSKEVAIRIFQGCQFRSVEAVQEITEYAKSIPGFVNLDLNDQVTLLKYGVHEIIYTMLASLMNKDGVLISEGQGFMTREFLKSLRKPFGDFMEPKFEFAVKFNALELDDSDLAIFIAVIILSGDRPGLLNVKPIEDIQDNLLQALELQLKLNHPESSQLFAKLLQKMTDLRQIVTEHVQLLQVIKKTETDMSLHPLLQEIYKD
notes: plasmid provided by A. Le Maire (CBS, CNRS); also called PPARγ wt; source: COS-7 or HEK293T cells, transfected (mammalian two-hybrid fusion)

binding result [10]: binds
B3: GST-tagged TIF2 (aa563-aa757) (domain or fragment, UniProt Q15596 563-757, looked up)
chain: QNSPVNMNPPPLSKMGSLDSKDCFGLYGEPSEGTTGQAESSCHPGEQKETNDPNLPPAVSSERADGQSRLHDSKGQTKLLQLLTTKSDQMEPSPLASSLSDTNKDSTGSLPGSGSTHGTSLKEKHKILHRLLQDSSSPVDLAKLTAEATGKDLSQESSSTAPGSEVTIKQEPVSPKKKENALLRYLLDKDDTKDI
modifications: FITC (fluorescein isothiocyanate) label in the fluorescence anisotropy assay; unlabelled in the pull-down
notes: TIF2 aa563-aa757; source: E. coli BL21 (DE3)

Kd [11]: 55.8 ± 2.9 µM
B4: His tagged PGC1-α (aa138-aa341) (domain or fragment, UniProt O70343 138-341, looked up)
chain: EPSLLKKLLLAPANTQLSYNECSGLSTQNHAANHTHRIRTNPAIVKTENSWSNKAKSICQQQKPQRRPCSELLKYLTTNDDPPHTKPTENRNSSRDKCASKKKSHTQPQSQHAQAKPTTLSLPLTPESPNDPKGSPFENKTIERTLSVELSGTAGLTPPTTPPHKANQDNPFKASPKLKPSCKTVVPPPTKRARYSECSGTQGS
modifications: FITC (fluorescein isothiocyanate) label in the fluorescence anisotropy assay; unlabelled in the pull-down
notes: PGC1-α aa138-aa341; source: E. coli BL21 (DE3)
